± gives the standard deviation of the averaged measurements.
Experiments:
MCF7 = assay: percentage of EdU-negative (G0-arrested) nuclei per well, 72 h; higher = more G0 arrest; conditions: reference: sequence is the full UniProt precursor, the tested protein was the secreted form or ectodomain
hTERT-HMEC = assay: as above; conditions: reference: sequence is the full UniProt precursor, the tested protein was the secreted form or ectodomain
[1] = protein concentration 0.0225 µM
[2] = protein concentration 0.00914286 µM
[3] = protein concentration 0.0914286 µM
[4] = protein concentration 0.0175 µM
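Further: secreted proteins added to cultured cells, EdU pulse at the end, nuclei found by Hoechst imaging, EdU status from nuclear versus surrounding ring intensity ratio, PBS as neutral control.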

Row | Sequence | percentage of EdU-negative (MCF7; [1]) | percentage of EdU-negative (MCF7; protein concentration 0.225 µM) | percentage of EdU-negative (hTERT-HMEC; [1]) | percentage of EdU-negative (hTERT-HMEC; protein concentration 0.225 µM) | also measured
1 | MDFPCLWLGLLLPLVAALDFNYHRQEGMEAFLKTVAQNYSSVTHLHSIGKSVKGRNLWVLVVGRFPKEHRIGIPEFKYVANMHGDETVGRELLLHLIDYLVTSDGKDPEITNLINSTRIHIMPSMNPDGFEAVKKPDCYYSIGRENYNQYDLNRNFPDAFEYNNVSRQPETVAVMKWLKTETFVLSANLHGGALVASYPFDNGVQATGALYSRSLTPDDDVFQYLAHTYASRNPNMKKGDECKNKMNFPNGVTNGYSWYPLQGGMQDYNYIWAQCFEITLELSCCKYPREEKLPSFWNNNKASLIEYIKQVHLGVKGQVFDQNGNPLPNVIVEVQDRKHICPYRTNKYGEYYLLLLPGSYIINVTVPGHDPHITKVIIPEKSQNFSALKKDILLPFQGQLDSIPVSNPSCPMIPLYRNLPDHSAATKPSLFLFLVSLLHIFFK | 25.2 ± 4.8% | 26.7 ± 1.4% | 4.44 ± 0.072% | 4.97 ± 0.2% | 
2 | MQWLRVRESPGEATGHRVTMGTAALGPVWAALLLFLLMCEIPMVELTFDRAVASGCQRCCDSEDPLDPAHVSSASSSGRPHALPEIRPYINITILKGDKGDPGPMGLPGYMGREGPQGEPGPQGSKGDKGEMGSPGAPCQKRFFAFSVGRKTALHSGEDFQTLLFERVFVNLDGCFDMATGQFAAPLRGIYFFSLNVHSWNYKETYVHIMHNQKEAVILYAQPSERSIMQSQSVMLDLAYGDRVWVRLFKRQRENAIYSNDFDTYITFSGHLIKAEDD [Q9BXI9] | 26.9 ± 1.5% | 29.5 ± 1.2% | 4.57 ± 0.33% | 4.82 ± 1.2% | 
3 | MGLHLRPYRVGLLPDGLLFLLLLLMLLADPALPAGRHPPVVLVPGDLGNQLEAKLDKPTVVHYLCSKKTESYFTIWLNLELLLPVIIDCWIDNIRLVYNKTSRATQFPDGVDVRVPGFGKTFSLEFLDPSKSSVGSYFHTMVESLVGWGYTRGEDVRGAPYDWRRAPNENGPYFLALREMIEEMYQLYGGPVVLVAHSMGNMYTLYFLQRQPQAWKDKYIRAFVSLGAPWGGVAKTLRVLASGDNNRIPVIGPLKIREQQRSAVSTSWLLPYNYTWSPEKVFVQTPTINYTLRDYRKFFQDIGFEDGWLMRQDTEGLVEATMPPGVQLHCLYGTGVPTPDSFYYESFPDRDPKICFGDGDGTVNLKSALQCQAWQSRQEHQVLLQELPGSEHIEMLANATTLAYLKRVLLGP [Q8NCC3] | 25.3 ± 2.1% | 24.9 ± 0.58% | 4.6 ± 0.49% | 6.68 ± 0.68% | 
4 | MDLWNLSWFLFLDALLVISGLATPENFDVDGGMDQDIFDINEGLGLDLFEGDIRLDRAQIRNSIIGEKYRWPHTIPYVLEDSLEMNAKGVILNAFERYRLKTCIDFKPWAGETNYISVFKGSGCWSSVGNRRVGKQELSIGANCDRIATVQHEFLHALGFWHEQSRSDRDDYVRIMWDRILSGREHNFNTYSDDISDSLNVPYDYTSVMHYSKTAFQNGTEPTIVTRISDFEDVIGQRMDFSDSDLLKLNQLYNCSSSLSFMDSCSFELENVCGMIQSSGDNADWQRVSQVPRGPESDHSNMGQCQGSGFFMHFDSSSVNVGATAVLESRTLYPKRGFQCLQFYLYNSGSESDQLNIYIREYSADNVDGNLTLVEEIKEIPTGSWQLYHVTLKVTKKFRVVFEGRKGSGASLGGLSIDDINLSETRCPHHIWHIRNFTQFIGSPNGTLYSPPFYSSKGYAFQIYLNLAHVTNAGIYFHLISGANDDQLQWPCPWQQATMTLLDQNPDIRQRMSNQRSITTDPFMTTDNGNYFWDRPSKVGTVALFSNGTQFRRGGGYGTSAFITHERLKSRDFIKGDDVYILLTVEDISHLNSTQIQLTPAPSVQDLCSKTTCKNDGVCTVRDGKAECRCQSGEDWWYMGERCEKRGSTRDTIVIAVSSTVAVFALMLIITLVSVYCTRKKYRERMSSNRPNLTPQNQHAF |  |  |  |  | percentage of EdU-negative (MCF7; [2]): 24.7 ± 3.1%; percentage of EdU-negative (MCF7; [3]): 27.5 ± 1.1%; percentage of EdU-negative (hTERT-HMEC; [2]): 6.01 ± 0.12%; percentage of EdU-negative (hTERT-HMEC; [3]): 6.74 ± 0.94%
5 | MEPFTNDRLQLPRNMIENSMFEEEPDVVDLAKEPCLHPLEPDEVEYEPRGSRLLVRGLGEHEMEEDEEDYESSAKLLGMSFMNRSSGLRNSATGYRQSPDGACSVPSARTMVVCAFVIVVAVSVIMVIYLLPRCTFTKEGCHKKNQSIGLIQPFATNGKLFPWAQIRLPTAVVPLRYELSLHPNLTSMTFRGSVTISVQALQVTWNIILHSTGHNISRVTFMSAVSSQEKQAEILEYAYHGQIAIVAPEALLAGHNYTLKIEYSANISSSYYGFYGFSYTDESNEKKYFAATQFEPLAARSAFPCFDEPAFKATFIIKIIRDEQYTALSNMPKKSSVVLDDGLVQDEFSESVKMSTYLVAFIVGEMKNLSQDVNGTLVSIYAVPEKIGQVHYALETTVKLLEFFQNYFEIQYPLKKLDLVAIPDFEAGAMENWGLLTFREETLLYDSNTSSMADRKLVTKIIAHELAHQWFGNLVTMKWWNDLWLNEGFATFMEYFSLEKIFKELSSYEDFLDARFKTMKKDSLNSSHPISSSVQSSEQIEEMFDSLSYFKGSSLLLMLKTYLSEDVFQHAVVLYLHNHSYASIQSDDLWDSFNEVTNQTLDVKRMMKTWTLQKGFPLVTVQKKGKELFIQQERFFLNMKPEIQPSDTSYLWHIPLSYVTEGRNYSKYQSVSLLDKKSGVINLTEEVLWVKVNINMNGYYIVHYADDDWEALIHQLKINPYVLSDKDRANLINNIFELAGLGKVPLKRAFDLINYLGNENHTAPITEALFQTDLIYNLLEKLGYMDLASRLVTRVFKLLQNQIQQQTWTDEGTPSMRELRSALLEFACTHNLGNCSTTAMKLFDDWMASNGTQSLPTDVMTTVFKVGAKTDKGWSFLLGKYISIGSEAEKNKILEALASSEDVRKLYWLMKSSLNGDNFRTQKLSFIIRTVGRHFPGHLLAWDFVKENWNKLVQKFPLGSYTIQNIVAGSTYLFSTKTHLSEVQAFFENQSEATFRLRCVQEALEVIQLNIQWMEKNLKSLTWWL [Q9UIQ6] | 26.9 ± 1.8% | 29.26 ± 0.17% | 4.48 ± 0.24% | 11.1 ± 0.58% | 
6 | MTRGGPGGRPGLPQPPPLLLLLLLLPLLLVTAEPPKPAGVYYATAYWMPAEKTVQVKNVMDKNGDAYGFYNNSVKTTGWGILEIRAGYGSQTLSNEIIMFVAGFLEGYLTAPHMNDHYTNLYPQLITKPSIMDKVQDFMEKQDKWTRKNIKEYKTDSFWRHTGYVMAQIDGLYVGAKKRAILEGTKPMTLFQIQFLNSVGDLLDLIPSLSPTKNGSLKVFKRWDMGHCSALIKVLPGFENILFAHSSWYTYAAMLRIYKHWDFNVIDKDTSSSRLSFSSYPGFLESLDDFYILSSGLILLQTTNSVFNKTLLKQVIPETLLSWQRVRVANMMADSGKRWADIFSKYNSGTYNNQYMVLDLKKVKLNHSLDKGTLYIVEQIPTYVEYSEQTDVLRKGYWPSYNVPFHEKIYNWSGYPLLVQKLGLDYSYDLAPRAKIFRRDQGKVTDTASMKYIMRYNNYKKDPYSRGDPCNTICCREDLNSPNPSPGGCYDTKVADIYLASQYTSYAISGPTVQGGLPVFRWDRFNKTLHQGMPEVYNFDFITMKPILKLDIK [Q6P4A8] |  |  |  |  | percentage of EdU-negative (MCF7; [4]): 25.6 ± 2.5%; percentage of EdU-negative (MCF7; protein concentration 0.175 µM): 27.7 ± 0.8%; percentage of EdU-negative (hTERT-HMEC; [4]): 4.42 ± 0.062%; percentage of EdU-negative (hTERT-HMEC; protein concentration 0.175 µM): 19.7 ± 1.7%
